This note sets out measurements from patent publication US20230406950A1 (LYVGEN BIOPHARMA, published 2023).

The term EC50 (read off the curve) denotes the midpoint of the concentration-response curve. A high value points to weaker potency.

The target in test [1] is T1, human CD137 ECD protein (His tag) (human, UniProt Q07011 24-186).
T1 construct: extracellular domain; also called recombinant human CD137; not shown: His tag
Put plainly: bridging ELISA: human CD137 ECD (His tag) coated, antibody titrated, then human PD-1 ECD (mouse IgG2a Fc tag), HRP anti-mouse IgG2a Fc; A450-A620. The procedure: Exemplary anti-PD-1/CD137 bi-specific antibodies were analyzed by ELISA for their simultaneous binding to recombinant human PD-1 and human CD137. Briefly, human CD137 ECD protein (His tag) was diluted and coated onto an ELISA plate with a volume of 100 μL/well by incubation at 4° C. overnight. The next day, the plate was blocked with PBST-BSA buffer, then serially diluted samples of anti-PD-1/CD137 bi-specific antibodies were pipetted into appropriate wells at 50 μL/well, and the plate was incubated for 1 hour followed by washing. The extracellular domain (ECD) of human PD-1 protein (mouse IgG2a Fc tag) was added into the plate at 50 μL/well. After 1-hour incubation at room temperature, HRP-conjugated anti-Mouse IgG, Fc G2a specific antibody was added into the plate at 100 μL/well. The plate was incubated for 1 hour at room temperature followed by washing. TMB substrate solution was added at 100 μL/well and the color development was stopped by adding 100 uL/well Stop Solution (2N H₂SO₄). Absorbance at 450 nm and 620 nm was read by Tecan F200 Pro plate reader. GraphPad 7.0, “[Agonist] vs. response—Variable slope (four parameters)” was used to plot the binding data and calculate binding EC50 values.
For orientation: ELISA stands for enzyme-linked immunosorbent assay.

Test [2] deals with T2, human CD137 expressed on cells (human, UniProt Q07011 24-255).
T2 construct: whole, on cells; also called 4-1BB; TNFRSF9
The test is described as follows: flow cytometry (FACS), MFI, CHO cells expressing human CD137. The procedure: (§1) Exemplary anti-PD-1/CD137 bi-specific antibodies were analyzed by FACS for their binding properties to human PD-1 and/or human CD137 expressed on CHO cells. Briefly, cultured cells were harvested, counted and cell viability was evaluated using the Trypan Blue exclusion method. Viable cells were then adjusted to 2×10⁶ cells per mL in PBS containing 2% BSA. 100 μL of this cell suspension were further aliquoted per well into a V-bottom 96-well plate. […] After incubation for 2 hours at 4° C., cells were centrifuged (3 min, 1000× g), washed with 250 μL/well BSA-containing FACS Stain Buffer, resuspended and incubated for an additional 1 hour at 4° C. with 100 μL/well fluorochrome-conjugated anti-IgG antibody for detection of the bisepecific antibody. Cells were then washed with 250 μL/well BSA-containing FACS Stain Buffer, resuspended in 100 μL/well FACS Stain Buffer, acquired and analyzed using a FACS machine. Binding of the bispecific antibodies to human PD-1 or human CD137 expressing CHO cells were evaluated and the mean fluorescence intensity is plotted in histograms or dot plots.

The target in test [3] is T3, human PD-1 expressed on cells (human, UniProt Q15116 25-288).
T3 construct: whole, on cells; also called human PD-1 over-expressed on the CHO cells; Jurkat/NFkB-Luci/PD-1 cells
Put plainly: flow cytometry (FACS), MFI, CHO cells expressing human PD-1. The procedure: as §1
On the technique in general: In flow cytometry, cells or beads pass a laser one at a time.

T2 sequence (Q07011 24-255): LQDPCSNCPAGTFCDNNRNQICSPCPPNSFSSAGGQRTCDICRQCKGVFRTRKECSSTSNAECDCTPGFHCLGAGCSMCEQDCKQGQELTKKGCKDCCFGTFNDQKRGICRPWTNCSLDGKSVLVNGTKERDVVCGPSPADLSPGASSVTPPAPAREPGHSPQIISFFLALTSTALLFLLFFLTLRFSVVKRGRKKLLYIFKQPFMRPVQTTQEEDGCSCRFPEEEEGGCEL
T3 sequence (Q15116 25-288): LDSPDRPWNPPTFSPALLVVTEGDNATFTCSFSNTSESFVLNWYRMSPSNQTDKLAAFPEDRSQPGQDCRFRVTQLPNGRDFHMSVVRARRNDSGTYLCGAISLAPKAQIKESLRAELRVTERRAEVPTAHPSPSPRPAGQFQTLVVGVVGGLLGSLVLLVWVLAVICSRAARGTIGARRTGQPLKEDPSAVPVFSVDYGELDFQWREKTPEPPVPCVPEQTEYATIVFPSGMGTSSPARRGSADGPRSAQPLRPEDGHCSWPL

B1: Ly460 (bispecific antibody, human IgG1, kappa)
heavy: QVTLKESGPALVKPTQTLTLTCTFSGFSLSTSGTCVSWIRQPPGKALEWLATICWEDSKGYNPSLKSRLTISKDTSKNQAVLTMTNMDPVDTATYYCARREDSGYFWFPYWGQGTLVTVSSASTKGPSVFPLAPSSKSTSGGTAALGCLVKDYFPEPVTVSWNSGALTSGVHTFPAVLQSSGLYSLSSVVTVPSSSLGTQTYICNVNHKPSNTKVDKKVEPKSCDKTHTCPPCPAPELLGPSVFLFPPKPKDTLMISRTPEVTCVVVDVSHEDPEVKFNWYVDGVEVHNAKTKPREEQYNSTYRVVSVLTVLHQDWLNGKEYKCKVSNKALPAPIEKTISKAKGQPREPQVYTLPPSREEMTKNQVSLTCLVKGFYPSDIAVEWESNGQPENNYKTTPPVLDSDGSFFLYSKLTVDKSRWQQGNVFSCSVMHEALHNHYTQKSLSLSPGGGGGSGGGGSGGGGSGGGGSDIQMTQSPSSLSASVGDRVTITCRASQDIRSNLNWYQQKPGGAVKLLIYYTSRLHSGVPSRFSGSGSGTDYTLTISSLQPEDFATYFCQQSEKLPRTFGGGTKVEIRRTVAAPSVFIFPPSDEQLKSGTASVVCLLNNFYPREAKVQWKVDNALQSGNSQESVTEQDSKDSTYSLSSTLTLSKADYEKHKVYACEVTHQGLSSPVTKSFNRGEC
light: NIQMTQSPSSLSASVGDRVTITCKAGQNVNNYLAWYQQKPGKAPKVLIFNANSLQTGVPSRFSGSGSGTDFTLTISSLQPEDFATYYCQQYNSWPTFGGGTKVEIKRTVAAPSVFIFPPSDEQLKSGTASVVCLLNNFYPREAKVQWKVDNALQSGNSQESVTEQDSKDSTYSLSSTLTLSKADYEKHKVYACEVTHQGLSSPVTKSFNRGEC
chain: QVQLVQSGAEVKKPGASVKVSCKASGYTFAGFEMHWVRQAPGQGLEWMGAIDPKTGGTDYNQKFKDRVTMTRDTSISTAYMELSRLRSDDTAVYYCARDLGYFDVWGQGTLVTVSSASTKGPSVFPLAPSSKSTSGGTAALGCLVKDYFPEPVTVSWNSGALTSGVHTFPAVLQSSGLYSLSSVVTVPSSSLGTQTYICNVNHKPSNTKVDKKVEPKSCDK
notes: Three-chain format: Ly516 heavy chain fused to Ly1630 light chain; Ly516 light chain; Ly1630 VH-CH1
For B1, the binding result in test [1] and in test [2] was “binds” each time. Further, the “EC50 (read off the curve)” value in test [3] is approximately 0.2 µg/mL.

B2: Ly456 (bispecific antibody, human IgG1, kappa)
heavy: QVTLKESGPALVKPTQTLTLTCTFSGFSLSTSGTCVSWIRQPPGKALEWLATICWEDSKGYNPSLKSRLTISKDTSKNQAVLTMTNMDPVDTATYYCARREDSGYFWFPYWGQGTLVTVSSASTKGPSVFPLAPSSKSTSGGTAALGCLVKDYFPEPVTVSWNSGALTSGVHTFPAVLQSSGLYSLSSVVTVPSSSLGTQTYICNVNHKPSNTKVDKKVEPKSCDKTHTCPPCPAPELLGPSVFLFPPKPKDTLMISRTPEVTCVVVDVSHEDPEVKFNWYVDGVEVHNAKTKPREEQYNSTYRVVSVLTVLHQDWLNGKEYKCKVSNKALPAPIEKTISKAKGQPREPQVYTLPPSREEMTKNQVSLTCLVKGFYPSDIAVEWESNGQPENNYKTTPPVLDSDGSFFLYSKLTVDKSRWQQGNVFSCSVMHEALHNHYTQKSLSLSPGGGGGSGGGGSGGGGSGGGGSDIQMTQSPSSLSASVGDRVTITCRASQDIRSNLNWYQQKPGGAVKLLIYYTSRLHSGVPSRFSGSGSGTDYTLTISSLQPEDFATYFCQQSEKLPRTFGGGTKVEIRGGGGSGGGGSGGGGSGGGGSQVQLVQSGAEVKKPGASVKVSCKASGYTFAGFEMHWVRQAPGQGLEWMGAIDPKTGGTDYNQKFKDRVTMTRDTSISTAYMELSRLRSDDTAVYYCARDLGYFDVWGQGTLVTVSS
light: B1 light
notes: Anti-PD-1/CD137: Ly516 heavy chain fused at C-terminus to Ly1630 scFv (VL-VH); Ly516 light chain
Regarding B2, the “EC50 (read off the curve)” value in test [1] was approximately 0.02 µg/mL; in test [3], approximately 0.2 µg/mL.

B3: Ly511 (bispecific antibody, human IgG2, kappa)
heavy: QVTLKESGPALVKPTQTLTLTCTFSGFSLSTSGTCVSWIRQPPGKALEWLATICWEDSKGYNPSLKSRLTISKDTSKNQAVLTMTNMDPVDTATYYCARREDSGYFWFPYWGQGTLVTVSSASTKGPSVFPLAPCSRSTSESTAALGCLVKDYFPEPVTVSWNSGALTSGVHTFPAVLQSSGLYSLSSVVTVPSSNFGTQTYTCNVDHKPSNTKVDKTVERKCCVECPPCPAPPVAPSVFLFPPKPKDTLMISRTPEVTCVVVDVSHEDPEVQFNWYVDGVEVHNAKTKPREEQFNSTFRVVSVLTVVHQDWLNGKEYKCKVSNKGLPAPIEKTISKTKGQPREPQVYTLPPSREEMTKNQVSLTCLVKGFYPSDIAVEWESNGQPENNYKTTPPMLDSDGSFFLYSKLTVDKSRWQQGNVFSCSVMHEALHNHYTQKSLSLSPGGGGGSGGGGSGGGGSGGGGSQVQLVQSGAEVKKPGASVKVSCKASGYTFAGFEMHWVRQAPGQGLEWMGAIDPKTGGTDYNQKFKDRVTMTRDTSISTAYMELSRLRSDDTAVYYCARDLGYFDVWGQGTLVTVSSGGGGSGGGGSGGGGSGGGGSDIQMTQSPSSLSASVGDRVTITCRASQDIRSNLNWYQQKPGGAVKLLIYYTSRLHSGVPSRFSGSGSGTDYTLTISSLQPEDFATYFCQQSEKLPRTFGGGTKVEIR
light: B1 light
notes: Anti-PD-1/CD137: Ly516 heavy chain fused to Ly1630 scFv (VH-VL); Ly516 light chain
For the molecule B3, the concentration giving a half-maximal response (EC50 (read off the curve)) in test [1] was approximately 0.02 µg/mL; in test [2], approximately 0.2 µg/mL; in test [3] it was approximately 0.2 µg/mL.

B4: Ly512 (bispecific antibody, human IgG2, kappa)
heavy: QVTLKESGPALVKPTQTLTLTCTFSGFSLSTSGTCVSWIRQPPGKALEWLATICWEDSKGYNPSLKSRLTISKDTSKNQAVLTMTNMDPVDTATYYCARREDSGYFWFPYWGQGTLVTVSSASTKGPSVFPLAPCSRSTSESTAALGCLVKDYFPEPVTVSWNSGALTSGVHTFPAVLQSSGLYSLSSVVTVPSSNFGTQTYTCNVDHKPSNTKVDKTVERKCCVECPPCPAPPVAPSVFLFPPKPKDTLMISRTPEVTCVVVDVSHEDPEVQFNWYVDGVEVHNAKTKPREEQFNSTFRVVSVLTVVHQDWLNGKEYKCKVSNKGLPAPIEKTISKTKGQPREPQVYTLPPSREEMTKNQVSLTCLVKGFYPSDIAVEWESNGQPENNYKTTPPMLDSDGSFFLYSKLTVDKSRWQQGNVFSCSVMHEALHNHYTQKSLSLSPGK
light: NIQMTQSPSSLSASVGDRVTITCKAGQNVNNYLAWYQQKPGKAPKVLIFNANSLQTGVPSRFSGSGSGTDFTLTISSLQPEDFATYYCQQYNSWPTFGGGTKVEIKRTVAAPSVFIFPPSDEQLKSGTASVVCLLNNFYPREAKVQWKVDNALQSGNSQESVTEQDSKDSTYSLSSTLTLSKADYEKHKVYACEVTHQGLSSPVTKSFNRGECGGGGSGGGGSGGGGSGGGGSDIQMTQSPSSLSASVGDRVTITCRASQDIRSNLNWYQQKPGGAVKLLIYYTSRLHSGVPSRFSGSGSGTDYTLTISSLQPEDFATYFCQQSEKLPRTFGGGTKVEIRGGGGSGGGGSGGGGSGGGGSQVQLVQSGAEVKKPGASVKVSCKASGYTFAGFEMHWVRQAPGQGLEWMGAIDPKTGGTDYNQKFKDRVTMTRDTSISTAYMELSRLRSDDTAVYYCARDLGYFDVWGQGTLVTVSS
notes: Anti-PD-1/CD137: Ly516 heavy chain; Ly516 light chain fused to Ly1630 scFv (VL-VH)
For the molecule B4, the “EC50 (read off the curve)” value in test [1] was approximately 0.02 µg/mL; in test [3], approximately 0.1 µg/mL.

B5: Ly513 (bispecific antibody, human IgG2, kappa)
heavy: B4 heavy
light: NIQMTQSPSSLSASVGDRVTITCKAGQNVNNYLAWYQQKPGKAPKVLIFNANSLQTGVPSRFSGSGSGTDFTLTISSLQPEDFATYYCQQYNSWPTFGGGTKVEIKRTVAAPSVFIFPPSDEQLKSGTASVVCLLNNFYPREAKVQWKVDNALQSGNSQESVTEQDSKDSTYSLSSTLTLSKADYEKHKVYACEVTHQGLSSPVTKSFNRGECGGGGSGGGGSGGGGSGGGGSQVQLVQSGAEVKKPGASVKVSCKASGYTFAGFEMHWVRQAPGQGLEWMGAIDPKTGGTDYNQKFKDRVTMTRDTSISTAYMELSRLRSDDTAVYYCARDLGYFDVWGQGTLVTVSSGGGGSGGGGSGGGGSGGGGSDIQMTQSPSSLSASVGDRVTITCRASQDIRSNLNWYQQKPGGAVKLLIYYTSRLHSGVPSRFSGSGSGTDYTLTISSLQPEDFATYFCQQSEKLPRTFGGGTKVEIR
notes: Anti-PD-1/CD137: Ly516 heavy chain; Ly516 light chain fused to Ly1630 scFv (VH-VL)
As to B5, the “EC50 (read off the curve)” value in test [1] is approximately 0.03 µg/mL; in test [2], approximately 0.2 µg/mL; in test [3], approximately 0.1 µg/mL.
